Results published in patent US20250339569A1 (3B PHARMACEUTICALS, published 2025).
One block for each binder: values may come before it. Starred links: 1 amine or outer side, 2 acyl side, 3 side chain; linkers in the order of their positions; H or OH if unused. Positions of bridges follow the written chain, without caps; N, C: chain ends. Non-standard residues stand in square brackets, D forms with d. Primed or numbered codes have the meaning given here. *: point of attachment. Aph(2Ta5Sa) = 4-aminophenylalanine, ring amine acylated with 5-sulfamoylthiophene-2-carboxylic acid, NS(=O)(=O)c1ccc(C(=O)Nc2ccc(C[C@H](N[*:1])C(=O)[*:2])cc2)s1; Aph(3Ta5Sa) = 4-aminophenylalanine, ring amine acylated with 5-sulfamoylthiophene-3-carboxylic acid, NS(=O)(=O)c1cc(C(=O)Nc2ccc(C[C@H](N[*:1])C(=O)[*:2])cc2)cs1; Af3(3MSaBz) = 3-aminophenylalanine, ring amine acylated with 3-(sulfamoylmethyl)benzoic acid, NS(=O)(=O)Cc1cccc(C(=O)Nc2cccc(C[C@H](N[*:1])C(=O)[*:2])c2)c1; Af3(HO-Glutar) = 3-aminophenylalanine acylated on the ring amine with glutaric acid (free COOH), O=C(CCCC(=O)[*:3])Nc1cccc(C[C@H](N[*:1])C(=O)[*:2])c1; Af3(4SaBz) = 3-aminophenylalanine, ring amine acylated with 4-sulfamoylbenzoic acid, NS(=O)(=O)c1ccc(C(=O)Nc2cccc(C[C@H](N[*:1])C(=O)[*:2])c2)cc1; Aph(SaPr)(4) = 4-aminophenylalanine, ring amine acylated with 3-sulfamoylpropanoic acid, NS(=O)(=O)CCC(=O)Nc1ccc(C[C@H](N[*:1])C(=O)[*:2])cc1; Af3(HO-Succinyl)″ = 3-aminophenylalanine, ring amine acylated with succinic acid, O=C(CCC(=O)[*:3])Nc1cccc(C[C@H](N[*:1])C(=O)[*:2])c1; Af3(H-pGlu) = 3-aminophenylalanine with L-pyroglutamyl on the ring amine, O=C1CC[C@@H](C(=O)Nc2cccc(C[C@H](N[*:1])C(=O)[*:2])c2)N1; Af3(Im5) = 3-aminophenylalanine with 1H-imidazole-5-carbonyl on the ring amine, O=C(Nc1cccc(C[C@H](N[*:1])C(=O)[*:2])c1)c1cnc[nH]1; Af3(Oa5) = 3-aminophenylalanine with 1,3-oxazole-5-carbonyl on the ring amine, O=C(Nc1cccc(C[C@H](N[*:1])C(=O)[*:2])c1)c1cnco1; Af3(H2N-Succinyl) = 3-aminophenylalanine with succinamoyl on the ring amine, NC(=O)CCC(=O)Nc1cccc(C[C@H](N[*:1])C(=O)[*:2])c1; Aph(Cp) = 4-aminophenylalanine with cyclopentanecarbonyl on the ring amine, O=C(Nc1ccc(C[C@H](N[*:1])C(=O)[*:2])cc1)C1CCCC1; DOTA(In) = O=C1CN2CCN3CCN(CC(=O)*)CCN(CC2)CC(=O)[O][In]([O]1)[O]C(=O)C3; Phe(3-NHCO(CH2)3SO2NH2) = N[C@@H](Cc1cccc(NC(=O)CCCS(N)(=O)=O)c1)C(=O)O; APAc″ = 2-(4-(amino)piperidin-1-yl)acetic acid, NC1CCN(CC(=O)*)CC1; DOTA = O=C(O)CN1CCN(CC(=O)O)CCN(CC(=O)*)CCN(CC(=O)O)CC1; NGly(3-aminopropyl) = O=C(CN(CCCN[*:3])[*:1])[*:2]; Phe(4-tBu) = CC(C)(C)c1ccc(C[C@H](N)C(=O)O)cc1; Pyridine(2,6-diCH2) = c1cc(C[*:1])nc(C[*:2])c1; mXylylene = c1cc(C[*:1])cc(C[*:2])c1; Orn(Me2) = CN(C)CCC[C@H](N)C(=O)O; αMeL = CC(C)C[C@](C)(N)C(=O)O; AGLU′ = not defined here; Ac6c = NC1(C(=O)O)CCCCC1; Orn = NCCC[C@H](N)C(=O)O; APAc = not defined here; Dab = NCC[C@H](N)C(=O)O; Dap = NC[C@H](N)C(=O)O; Bn = c1ccc(C*)cc1

What was measured:
[1] = target: human carbonic anhydrase 9 (CAIX) (human, UniProt Q16790 38-459); test: FACS competition on HT-29 cells, competitor tracer 3BP-2776; category B = pIC50 7.1-8.0
Description: (§1) CAIX-expressing human HT-29 colorectal cancer cells (DSMZ, RRID: CVCL_0320) were cultured in McCoys's 5A modified medium (Biochrom, #F1015) including 10% fetal calf serum (FCS), 2 mM L-glutamine, 100 U/ml penicillin and 100 μg/mL streptomycin. Cells were detached with Accutase (Biolegend, #423201) and washed in FACS buffer (PBS including 1% FCS). Cells were diluted in FACS buffer to a final concentration of 500.000 cells per ml. 200 μL of the cell suspension were transferred to a u-shaped non-binding 96-well plate (Greiner) and cells were washed in ice-cold FACS buffer.
(§2) When biotinylated compounds were used an additional incubation step with 1 μg/mL APC-Streptavidin (Miltenyi; #130-106-791) in 50 μL FACS buffer for 30 minutes on ice was performed.
(§3) Cells were washed twice with ice-cold FACS buffer and analyzed in an Attune NxT flow cytometer (Thermo Fisher). Median fluorescence intensities (MFI) of the APC/Cy5-channel were calculated by Attune NxT software.

[2] = target: T1, Fc-fusion protein of human carbonic anhydrase IX (human, UniProt Q16790 38-414); test: SPR, captured hCAIX-Fc; pKD category A: >8.0
[3] = target: T1, Fc-fusion protein of human carbonic …; test: SPR, captured hCAIX-Fc; t1/2 category A: >15.0 min
Description: Stock solutions of test compounds were prepared by dissolving each compound in DMSO. DMSO stock solution were diluted 1:1000 in Running Buffer without DMSO. […] SPR binding analyses were performed in Single Cycle Kinetic (SCK) mode at 25° C.
For each test compound, SPR raw data in the form of resonance units (RU) were plotted as sensorgrams using the Biacore™ T200 control software. The signal from the blank sensorgram was subtracted from that of the test compound sensorgram (blank corrected). The blank corrected sensorgram was corrected for baseline drift by subtracting the sensorgram of a SCK run without the test compound (running buffer only). […] Raw data and fit results were imported as text files in IDBS. The pKD value (negative decadic logarithm of dissociation constant) was calculated in the IDBS excel template.

[4] = target: human carbonic anhydrase IX (CAIX) (human, UniProt Q16790 38-459); test: FACS competition, HT-29 cells, tracer 3BP-4149; pIC50 category A: >8.0
Description: as §1, §2, §3

B1: 3BP-3958 (peptide)
peptide: Ac-VYCE[dP][Orn]WLEWSC-NH2
modifications: linker 3-12 via mXylylene; lactam 6-9
SMILES: CC(=O)N[C@H](C(=O)N[C@@H](Cc1ccc(O)cc1)C(=O)N[C@H]1CSCc2cccc(c2)CSC[C@@H](C(N)=O)NC(=O)[C@H](CO)NC(=O)[C@H](Cc2c[nH]c3ccccc23)NC(=O)[C@@H]2CCC(=O)NCCC[C@H](NC(=O)[C@H]3CCCN3C(=O)[C@H](CCC(=O)O)NC1=O)C(=O)N[C@@H](Cc1c[nH]c3ccccc13)C(=O)N[C@@H](CC(C)C)C(=O)N2)C(C)C
pIC50 [1]: 7.1 to 8 pic50

B2: 3BP-4098 (peptide)
peptide: {DOTA-APAc}-VYCE[dP][Orn(Me2)]WLTWSC-NH2
modifications: linker 3-12 via mXylylene; reading uncertain
pIC50 [1]: 7.1 to 8 pic50

B7: 3BP-3961 (peptide)
peptide: Ac-VYCE[dP]KW[Ac6c]EWSC-NH2
modifications: linker 3-12 via mXylylene; lactam 6-9
SMILES: CC(=O)N[C@H](C(=O)N[C@@H](Cc1ccc(O)cc1)C(=O)N[C@H]1CSCc2cccc(c2)CSC[C@@H](C(N)=O)NC(=O)[C@H](CO)NC(=O)[C@H](Cc2c[nH]c3ccccc23)NC(=O)[C@@H]2CCC(=O)NCCCC[C@H](NC(=O)[C@H]3CCCN3C(=O)[C@H](CCC(=O)O)NC1=O)C(=O)N[C@@H](Cc1c[nH]c3ccccc13)C(=O)NC1(CCCCC1)C(=O)N2)C(C)C
pIC50 [1]: 7.1 to 8 pic50

B9: 3BP-4160 (peptide)
peptide: {DOTA-APAc″}-VYCE[dP]D[Phe(4-tBu)]LTWSC-NH2
modifications: linker 3-12 via mXylylene
pIC50 [1]: 7.1 to 8 pic50

B10: 3BP-4106 (peptide)
peptide: {DOTA-APAc}-VYCE[dP]DW[αMeL]TWSC-NH2
modifications: linker 3-12 via mXylylene; reading uncertain
pIC50 [1]: 7.1 to 8 pic50

B11: 3BP-4238 (peptide)
peptide: {DOTA-APAc″}-VYCE[dP]D[Af3(H2N-Succinyl)]LTWSC-NH2
modifications: linker 3-12 via mXylylene
pIC50 [1]: 7.1 to 8 pic50

B14: 3BP-4140 (peptide)
peptide: {DOTA-APAc″}-VYCE[dP]DWLTWSC-NH2
modifications: linker 3-12 via Pyridine(2,6-diCH2)
pIC50 [1]: 7.1 to 8 pic50

B15: 3BP-4046 (peptide)
peptide: Ac-VYCE[dP]KWLDWSC-NH2
modifications: linker 3-12 via mXylylene; lactam 6-9
SMILES: CC(=O)N[C@H](C(=O)N[C@@H](Cc1ccc(O)cc1)C(=O)N[C@H]1CSCc2cccc(c2)CSC[C@@H](C(N)=O)NC(=O)[C@H](CO)NC(=O)[C@H](Cc2c[nH]c3ccccc23)NC(=O)[C@@H]2CC(=O)NCCCC[C@H](NC(=O)[C@H]3CCCN3C(=O)[C@H](CCC(=O)O)NC1=O)C(=O)N[C@@H](Cc1c[nH]c3ccccc13)C(=O)N[C@@H](CC(C)C)C(=O)N2)C(C)C
pIC50 [1]: 7.1 to 8 pic50

B16: 3BP-4120 (peptide)
peptide: {DOTA-APAc}-VYCE[dP]E(AGLU′)WLTWSC-NH2
modifications: linker 3-12 via mXylylene; reading uncertain
pIC50 [1]: 7.1 to 8 pic50

B17: 3BP-4052 (peptide)
peptide: {DOTA(In)-APAc}-VYCE[dP]KWLEWSC-NH2
modifications: linker 3-12 via mXylylene; lactam 6-9; reading uncertain; also: indium complexed by DOTA
pIC50 [1]: 7.1 to 8 pic50

B18: 3BP-4137 (peptide)
peptide: {DOTA-APAc}-VYCE[dP]DY(Bn)LTWSC-NH2
modifications: linker 3-12 via mXylylene; not fully specified; reading uncertain
pIC50 [1]: 7.1 to 8 pic50

B19: 3BP-4115 (peptide)
peptide: {DOTA-APAc}-VYCE[dK]SWLEWSC-NH2
modifications: linker 3-12 via mXylylene; lactam 5-9; reading uncertain
pIC50 [1]: 7.1 to 8 pic50

B20: 3BP-3960 (peptide)
peptide: Ac-VYCE[dP][Dab]WLEWSC-NH2
modifications: linker 3-12 via mXylylene; lactam 6-9
SMILES: CC(=O)N[C@H](C(=O)N[C@@H](Cc1ccc(O)cc1)C(=O)N[C@H]1CSCc2cccc(c2)CSC[C@@H](C(N)=O)NC(=O)[C@H](CO)NC(=O)[C@H](Cc2c[nH]c3ccccc23)NC(=O)[C@@H]2CCC(=O)NCC[C@H](NC(=O)[C@H]3CCCN3C(=O)[C@H](CCC(=O)O)NC1=O)C(=O)N[C@@H](Cc1c[nH]c3ccccc13)C(=O)N[C@@H](CC(C)C)C(=O)N2)C(C)C
pIC50 [1]: 7.1 to 8 pic50

B25: 3BP-4173 (peptide)
peptide: {DOTA-APAc″}-VYCE[dP]D[Aph(Cp)]LTWSC-NH2
modifications: linker 3-12 via mXylylene
pIC50 [1]: 7.1 to 8 pic50

B27: 3BP-4053 (peptide)
peptide: {DOTA(In)}-YCE[dP]KWLEWSC-NH2
modifications: linker 2-11 via mXylylene; lactam 5-8; also: indium complexed by DOTA
pIC50 [1]: 7.1 to 8 pic50

Now from value to binder:

pIC50 [1]: 7.1 to 8 pic50
B3: 3BP-4252 (peptide)
peptide: {DOTA-APAc″}-VYCEG[NGly(3-aminopropyl)]WLEWSC-NH2
modifications: linker 3-12 via mXylylene; lactam 6-9

pIC50 [1]: 7.1 to 8 pic50
B4: 3BP-4239 (peptide)
peptide: {DOTA-APAc″}-VYCE[dP]D[Af3(Oa5)]LTWSC-NH2
modifications: linker 3-12 via mXylylene

pKD [2]: > 8 pkd
t1/2 (half-life of the complex, SPR) [3]: > 15 min
pIC50 [4]: > 8 pic50
B5: 3BP-4405 (peptide)
peptide: {DOTA-APAc}-VYCE[dP]D[Af3(4SaBz)]LTWSC-NH2
modifications: linker 3-12 via mXylylene; reading uncertain

pKD [2]: > 8 pkd
t1/2 (half-life of the complex, SPR) [3]: > 15 min
pIC50 [4]: > 8 pic50
B6: 3BP-4401 (peptide)
peptide: {DOTA-APAc}-VYCE[dP]D[Aph(3Ta5Sa)]LTWSC-NH2
modifications: linker 3-12 via mXylylene; reading uncertain

pKD [2]: > 8 pkd
t1/2 (half-life of the complex, SPR) [3]: > 15 min
pIC50 [4]: > 8 pic50
B8: 3BP-4406 (peptide)
peptide: {DOTA-APAc}-VYCE[dP]D[Af3(3MSaBz)]LTWSC-NH2
modifications: linker 3-12 via mXylylene; reading uncertain

pKD [2]: > 8 pkd
t1/2 (half-life of the complex, SPR) [3]: > 15 min
pIC50 [4]: > 8 pic50
B12: 3BP-4369 (peptide)
peptide: {DOTA-APAc}-VYCE[dP]D[Phe(3-NHCO(CH2)3SO2NH2)]LTWSC-NH2
modifications: linker 3-12 via mXylylene; reading uncertain

pKD [2]: > 8 pkd
t1/2 (half-life of the complex, SPR) [3]: > 15 min
pIC50 [4]: > 8 pic50
B13: 3BP-4402 (peptide)
peptide: {DOTA-APAc}-VYCE[dP]D[Aph(2Ta5Sa)]LTWSC-NH2
modifications: linker 3-12 via mXylylene; reading uncertain

pKD [2]: > 8 pkd
t1/2 (half-life of the complex, SPR) [3]: > 15 min
pIC50 [4]: > 8 pic50
B21: 3BP-4367 (peptide)
peptide: {DOTA-APAc″}-VYCE[dP]D[Af3(HO-Glutar)]LTWSC-NH2
modifications: linker 3-12 via mXylylene

pKD [2]: > 8 pkd
t1/2 (half-life of the complex, SPR) [3]: > 15 min
pIC50 [4]: > 8 pic50
B22: 3BP-4400 (peptide)
peptide: {DOTA-APAc}-VYCE[dP]D[Aph(SaPr)(4)]LTWSC-NH2
modifications: linker 3-12 via mXylylene; reading uncertain

pIC50 [1]: 7.1 to 8 pic50
B23: 3BP-4240 (peptide)
peptide: {DOTA-APAc″}-VYCE[dP]D[Af3(Im5)]LTWSC-NH2
modifications: linker 3-12 via mXylylene

pIC50 [1]: 7.1 to 8 pic50
B24: 3BP-4241 (peptide)
peptide: {DOTA-APAc″}-VYCE[dP]D[Af3(H-pGlu)]LTWSC-NH2
modifications: linker 3-12 via mXylylene

pKD [2]: > 8 pkd
t1/2 (half-life of the complex, SPR) [3]: > 15 min
pIC50 [4]: > 8 pic50
B26: 3BP-4377 (peptide)
peptide: {DOTA-APAc}-VDCE[dP]D[Af3(HO-Succinyl)″]LTW[Dap]C-NH2
modifications: lactam 2-11; linker 3-12 via mXylylene; reading uncertain
